Test results as given in patent publication US20240317847A1.
pIC50, pKd: −log10 of the molar value.

Tests used:
human IL-11 (human) [1] = molecular target: human IL-11 (human) (UniProt P20809); assay: Tri-complex ELISA, hIL-11 + mIL-11Ra-Fc + hgp130-Fc, inhibition of complex formation
murine IL-11 (mouse) [2] = molecular target: murine IL-11 (mouse) (UniProt P47873); assay: Di-complex ELISA, canine IL11RA-hFc binding to immobilized mIL-11, competition
murine IL-11 (mouse) [3] = molecular target: murine IL-11 (mouse) (UniProt P47873); assay: Tri-complex ELISA, mIL-11 + mIL-11Ra-Fc + mgp130-Fc, inhibition of complex formation
human IL-11 (human) [4] = molecular target: human IL-11 (human) (UniProt P20809); assay: Di-complex ELISA, canine IL11RA-hFc binding to immobilized hIL-11, competition
murine IL-11 (mouse) [5] = molecular target: murine IL-11 (mouse) (UniProt P47873); assay: cell-based or functional assay
human IL-11 (human) [6] = molecular target: human IL-11 (human) (UniProt P20809); assay: cell-based or functional assay
murine IL-11 (mouse) [7] = molecular target: murine IL-11 (mouse) (UniProt P47873); assay: SPR (Biacore), antibody captured, IL-11 at single concentration 200 nM
human IL-11 (human) [8] = molecular target: human IL-11 (human) (UniProt P20809); assay: as above
[9] = molecular target: IL-11 [218-IL from R&D Systems, Inc.] (human) (UniProt P20809); assay: cell-based or functional assay
[10] = molecular target: human IL-11 (Invigate, e.g., lot #C121021-19) (human) (UniProt P20809); assay: Di-complex ELISA: biotinylated human IL-11 on streptavidin plate, antibody titrated against 2 nM canine IL11RA-human-Fc (competitor)
[11] = molecular target: human IL-11 (Invigate, e.g., lot #C121021-19) (human) (UniProt P20809); assay: Tri-complex ELISA: antibody titrated against 8 nM human IL-11, 2 nM human gp130-human-Fc and 2 nM murine IL11RA-murine-Fc
[12] = molecular target: murine IL-11 (Invigate, e.g., lot #C210819-09) (mouse) (UniProt P47873); assay: Tri-complex ELISA: antibody titrated against 8 nM murine IL-11, 2 nM murine gp130-human-Fc and 2 nM murine IL11RA-murine-Fc
[13] = molecular target: human IL-11 (Invigate, e.g., lot #C121021-19) (human) (UniProt P20809); assay: SPR, Biacore T200, 25 C; antibody captured via anti-mouse Fc, IL-11 as analyte, 1:1 Langmuir fit
[14] = molecular target: murine IL-11 (Invigate, e.g., lot #C210819-09) (mouse) (UniProt P47873); assay: as above
[15] = molecular target: human IL-11 (Invigate, e.g., lot #C121021-19) (human) (UniProt P20809); assay: cell-based or functional assay
[16] = molecular target: murine IL-11 (Invigate, e.g., lot #C210819-09) (mouse) (UniProt P47873); assay: cell-based or functional assay
[17] = molecular target: murine IL-11 (Invigate, e.g., lot #C210819-09) (mouse) (UniProt P47873); assay: Di-complex ELISA: biotinylated murine IL-11 on streptavidin plate, antibody titrated against 2 nM canine IL11RA-human-Fc (competitor)

Sequence of human IL-11 (human) (P20809 22-199): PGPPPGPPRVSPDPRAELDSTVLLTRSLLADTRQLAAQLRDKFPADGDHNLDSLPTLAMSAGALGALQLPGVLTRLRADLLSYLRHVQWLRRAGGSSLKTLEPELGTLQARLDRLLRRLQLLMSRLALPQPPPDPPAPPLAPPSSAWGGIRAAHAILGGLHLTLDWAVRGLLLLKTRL
Sequence of human IL-11 (Invigate, e.g., lot #C121021-19) (human) (P20809 22-199): as above
Sequence of murine IL-11 (mouse) (P47873 22-199): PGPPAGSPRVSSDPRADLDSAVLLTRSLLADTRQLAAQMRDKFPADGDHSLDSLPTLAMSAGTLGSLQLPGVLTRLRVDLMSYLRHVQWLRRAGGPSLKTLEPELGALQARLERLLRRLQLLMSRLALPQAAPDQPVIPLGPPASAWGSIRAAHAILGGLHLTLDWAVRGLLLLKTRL
Sequence of murine IL-11 (Invigate, e.g., lot #C210819-09) (mouse) (P47873 22-199): as above
Sequence of IL-11 [218-IL from R&D Systems, Inc.] (human) (P20809 22-199 limits assumed): as the sequence (P20809 22-199) above

Substance	Efficacy (%) (human IL-11 (human) [1])	pIC50 (human IL-11 (human) [1])	Efficacy (%) (murine IL-11 (mouse) [2])	pIC50 (murine IL-11 (mouse) [2])	Efficacy (%) (murine IL-11 (mouse) [3])	pIC50 (murine IL-11 (mouse) [3])	Efficacy (%) (human IL-11 (human) [4])	pIC50 (human IL-11 (human) [4])	Efficacy (%), Stat3 reporter gene assay (murine IL-11 (mouse) [5])	Efficacy (%), Stat3 reporter gene assay (human IL-11 (human) [6])	pKd (murine IL-11 (mouse) [7])	pKd (human IL-11 (human) [8])	IC50, Stat3 reporter gene assay (murine IL-11 (mouse) [5])	further results
GTX52814 (antibody)	36.9%	7.85	89.9%	8.33	106%	7.77	74.9%	8.72	75.5%	5.1%	8.70	8.48	–	–
IL-11 function blocking polyclonal antibody AF-418-NA (R&D Systems, Inc.)	–	–	–	–	–	–	–	–	–	–	–	–	–	secretion of VEGF-A, primary human fibroid slice assay (ng/mg protein) [9]: 17.3
LS-C104441 (antibody)	65.6%	7.70	91.2%	8.46	98.4%	8.42	71.5%	8.28	88%	42.6%	8.66	8.41	3.9 nM	–
LS-C193526 (antibody)	78.5%	8.00	96.2%	8.19	90.3%	8.18	90.1%	8.00	88.3%	52.7%	8.21	8.20	5.6 nM	IC50, Stat3 reporter gene assay (human IL-11 (human) [6]): 50 nM
MA5-23711 (antibody)	34.1%	7.72	70.5%	7.54	62.3%	–	51.1%	7.22	47.6%	19.9%	8.70	8.44	–	–
TPP-14250 (R&D Systems, #MAB218) (antibody)	–	–	–	–	–	–	–	–	–	–	–	–	–	Efficacy (%) [10]: 67.2%; pIC50 [10]: 8.13; Efficacy (%) [11]: 67.2%; pIC50 [11]: 7.42; Efficacy (%) [12]: 60.9%; pIC50 [12]: 7.77; pKd [13]: 7.72; pKd [14]: 8.42; Efficacy (%), Stat3 reporter gene assay, human IL11RA, 0.78 nM hIL-11 [15]: 27.1%; IC50 [M], Stat3 reporter gene assay, HEK 293F transfected with human IL11RA, 0.78 nM hIL-11 [15]: 2.41e-10 M; Efficacy (%), Stat3 reporter gene assay, mouse Il11ra, 3.13 nM mIL-11 [16]: 69.1%; IC50 [M], Stat3 reporter gene assay, HEK 293F transfected with mouse Il11ra, 3.13 nM mIL-11 [16]: 1.42e-07 M; Efficacy (%) [17]: 92.3%; pIC50 [17]: 8.89
